biological target: TRAIL-R2-Fc (human, UniProt O14763 56-210); assay: ELISA

Row | EC50 | Binder
1 | 8.82 nM | scTRAIL3-FAVGGIA (protein) MDWTWRVFCLLAVAPGAHSLDDYKDDDDKEFGGAAAHITGTRGRSNTLSSPNSKNEKALGRKINSWESSRSGHSFLSNLHLRNGELVIHEKGFYYIYSQTYFRFQEEIKENTKNDKQMVQYIYKYTSYPDPILLMKSARNSCWSKDAEYGLYSIYQGGIFELKENDRIFVSVTNEHLIDMDHEASFFGAFLVGGAAAHITGTRGRSNTLSSPNSKNEKALGRKINSWESSRSGHSFLSNLHLRNGELVIHEKGFYYIYSQTYFRFQEEIKENTKNDKQMVQYIYKYTSYPDPILLMKSARNSCWSKDAEYGLYSIYQGGIFELKENDRIFVSVTNEHLIDMDHEASFFGAFLVGGAAAHITGTRGRSNTLSSPNSKNEKALGRKINSWESSRSGHSFLSNLHLRNGELVIHEKGFYYIYSQTYFRFQEEIKENTKNDKQMVQYIYKYTSYPDPILLMKSARNSCWSKDAEYGLYSIYQGGIFELKENDRIFVSVTNEHLIDMDHEASFFGAFLVG
2 | 17.5 nM | scTRAIL3-FLVSGIA (protein) MDWTWRVFCLLAVAPGAHSLDDYKDDDDKEFGGIAAHITGTRGRSNTLSSPNSKNEKALGRKINSWESSRSGHSFLSNLHLRNGELVIHEKGFYYIYSQTYFRFQEEIKENTKNDKQMVQYIYKYTSYPDPILLMKSARNSCWSKDAEYGLYSIYQGGIFELKENDRIFVSVTNEHLIDMDHEASFFGAFAVGGIAAHITGTRGRSNTLSSPNSKNEKALGRKINSWESSRSGHSFLSNLHLRNGELVIHEKGFYYIYSQTYFRFQEEIKENTKNDKQMVQYIYKYTSYPDPILLMKSARNSCWSKDAEYGLYSIYQGGIFELKENDRIFVSVTNEHLIDMDHEASFFGAFAVGGIAAHITGTRGRSNTLSSPNSKNEKALGRKINSWESSRSGHSFLSNLHLRNGELVIHEKGFYYIYSQTYFRFQEEIKENTKNDKQMVQYIYKYTSYPDPILLMKSARNSCWSKDAEYGLYSIYQGGIFELKENDRIFVSVTNEHLIDMDHEASFFGAFAVG
3 | 4.82 nM | scTRAIL3-FIVGGIA (protein) MDWTWRVFCLLAVAPGAHSLDDYKDDDDKEFGGAAAHITGTRGRSNTLSSPNSKNEKALGRKINSWESSRSGHSFLSNLHLRNGELVIHEKGFYYIYSQTYFRFQEEIKENTKNDKQMVQYIYKYTSYPDPILLMKSARNSCWSKDAEYGLYSIYQGGIFELKENDRIFVSVTNEHLIDMDHEASFFGAFAVGGAAAHITGTRGRSNTLSSPNSKNEKALGRKINSWESSRSGHSFLSNLHLRNGELVIHEKGFYYIYSQTYFRFQEEIKENTKNDKQMVQYIYKYTSYPDPILLMKSARNSCWSKDAEYGLYSIYQGGIFELKENDRIFVSVTNEHLIDMDHEASFFGAFAVGGAAAHITGTRGRSNTLSSPNSKNEKALGRKINSWESSRSGHSFLSNLHLRNGELVIHEKGFYYIYSQTYFRFQEEIKENTKNDKQMVQYIYKYTSYPDPILLMKSARNSCWSKDAEYGLYSIYQGGIFELKENDRIFVSVTNEHLIDMDHEASFFGAFAVG
4 | 6.7 nM | scTRAIL3-FIVSGIA (protein) MDWTWRVFCLLAVAPGAHSLDDYKDDDDKEFGGIAAHITGTRGRSNTLSSPNSKNEKALGRKINSWESSRSGHSFLSNLHLRNGELVIHEKGFYYIYSQTYFRFQEEIKENTKNDKQMVQYIYKYTSYPDPILLMKSARNSCWSKDAEYGLYSIYQGGIFELKENDRIFVSVTNEHLIDMDHEASFFGAFIVGGIAAHITGTRGRSNTLSSPNSKNEKALGRKINSWESSRSGHSFLSNLHLRNGELVIHEKGFYYIYSQTYFRFQEEIKENTKNDKQMVQYIYKYTSYPDPILLMKSARNSCWSKDAEYGLYSIYQGGIFELKENDRIFVSVTNEHLIDMDHEASFFGAFIVGGIAAHITGTRGRSNTLSSPNSKNEKALGRKINSWESSRSGHSFLSNLHLRNGELVIHEKGFYYIYSQTYFRFQEEIKENTKNDKQMVQYIYKYTSYPDPILLMKSARNSCWSKDAEYGLYSIYQGGIFELKENDRIFVSVTNEHLIDMDHEASFFGAFIVG
5 | 5.69 nM | scTRAIL3-FAVSGAA (protein) MDWTWRVFCLLAVAPGAHSLDDYKDDDDKEFGGAAAHITGTRGRSNTLSSPNSKNEKALGRKINSWESSRSGHSFLSNLHLRNGELVIHEKGFYYIYSQTYFRFQEEIKENTKNDKQMVQYIYKYTSYPDPILLMKSARNSCWSKDAEYGLYSIYQGGIFELKENDRIFVSVTNEHLIDMDHEASFFGAFAVSGAAAHITGTRGRSNTLSSPNSKNEKALGRKINSWESSRSGHSFLSNLHLRNGELVIHEKGFYYIYSQTYFRFQEEIKENTKNDKQMVQYIYKYTSYPDPILLMKSARNSCWSKDAEYGLYSIYQGGIFELKENDRIFVSVTNEHLIDMDHEASFFGAFAVSGAAAHITGTRGRSNTLSSPNSKNEKALGRKINSWESSRSGHSFLSNLHLRNGELVIHEKGFYYIYSQTYFRFQEEIKENTKNDKQMVQYIYKYTSYPDPILLMKSARNSCWSKDAEYGLYSIYQGGIFELKENDRIFVSVTNEHLIDMDHEASFFGAFAVS

biological target: HT1080; assay: flow cytometry; HT1080 cells

Row | EC50 | Binder
6 | 1.9 nM | Db8-Glyco-scTRAIL3-FAVSGAA (other, glycosylated connecting peptide) LEASDYKDDDDKGAEVQLVESGGGLVQPGGSLRLSCAASGFSLTNYGVHWVRQAPGKGLEWLGVIWSGGNTDYNTPFTSRFTISRDNSKNTLYLQMNSLRAEDTAVYYCARALTYYDYEFAYWGQGTTVTVSSGGGGSGGGDIQLTQSPSFLSASVGDRVTITCRASQSIGTNIHWYQQKPGKAPKLLIKYASESISGVPSRFSGSGSGTEFTLTISSLQPEDFATYYCQQNNNWPTTFGAGTKLEIKRAAAGNGTSNGTSEFGGAAAHITGTRGRSNTLSSPNSKNEKALGRKINSWESSRSGHSFLSNLHLRNGELVIHEKGFYYIYSQTYFRFQEEIKENTKNDKQMVQYIYKYTSYPDPILLMKSARNSCWSKDAEYGLYSIYQGGIFELKENDRIFVSVTNEHLIDMDHEASFFGAFAVSGAAAHITGTRGRSNTLSSPNSKNEKALGRKINSWESSRSGHSFLSNLHLRNGELVIHEKGFYYIYSQTYFRFQEEIKENTKNDKQMVQYIYKYTSYPDPILLMKSARNSCWSKDAEYGLYSIYQGGIFELKENDRIFVSVTNEHLIDMDHEASFFGAFAVSGAAAHITGTRGRSNTLSSPNSKNEKALGRKINSWESSRSGHSFLSNLHLRNGELVIHEKGFYYIYSQTYFRFQEEIKENTKNDKQMVQYIYKYTSYPDPILLMKSARNSCWSKDAEYGLYSIYQGGIFELKENDRIFVSVTNEHLIDMDHEASFFGAFAVS
7 | 0.6 nM | Db-Glyco-scTRAIL-95L8 (other) TSEETISTVQEKQQNISPLVRERGPQRVAAHITGTRGRSNTLSSPNSKNEKALGRKINSWESSRSGHSFLSNLHLRNGELVIHEKGFYYIYSQTYFRFQEEIKENTKNDKQMVQYIYKYTSYPDPILLMKSARNSCWSKDAEYGLYSIYQGGIFELKENDRIFVSVTNEHLIDMDHEASFFGAFLVGGGGSGGGSTSEETISTVQEKQQNISPLVRERGPQRVAAHITGTRGRSNTLSSPNSKNEKALGRKINSWESSRSGHSFLSNLHLRNGELVIHEKGFYYIYSQTYFRFQEEIKENTKNDKQMVQYIYKYTSYPDPILLMKSARNSCWSKDAEYGLYSIYQGGIFELKENDRIFVSVTNEHLIDMDHEASFFGAFLVGGGGSGGGSTSEETISTVQEKQQNISPLVRERGPQRVAAHITGTRGRSNTLSSPNSKNEKALGRKINSWESSRSGHSFLSNLHLRNGELVIHEKGFYYIYSQTYFRFQEEIKENTKNDKQMVQYIYKYTSYPDPILLMKSARNSCWSKDAEYGLYSIYQGGIFELKENDRIFVSVTNEHLIDMDHEASFFGAFLVG
8 | 2.6 nM | Db-Glyco-scTRAIL3-FAVSGAA (other, two N-glycosylation sites in the peptide AAAGNGTSNGTSEFGG, shown to be glycosylated) LEASDYKDDDDKGAEVQLVESGGGLVQPGGSLRLSCAASGFSLTNYGVHWVRQAPGKGLEWLGVIWSGGNTDYNTPFTSRFTISRDNSKNTLYLQMNSLRAEDTAVYYCARALTYYDYEFAYWGQGTTVTVSSGGGGSDIQLTQSPSFLSASVGDRVTITCRASQSIGTNIHWYQQKPGKAPKLLIKYASESISGVPSRFSGSGSGTEFTLTISSLQPEDFATYYCQQNNNWPTTFGAGTKLEIKRAAAGNGTSNGTSEFGGAAAHITGTRGRSNTLSSPNSKNEKALGRKINSWESSRSGHSFLSNLHLRNGELVIHEKGFYYIYSQTYFRFQEEIKENTKNDKQMVQYIYKYTSYPDPILLMKSARNSCWSKDAEYGLYSIYQGGIFELKENDRIFVSVTNEHLIDMDHEASFFGAFAVSGAAAHITGTRGRSNTLSSPNSKNEKALGRKINSWESSRSGHSFLSNLHLRNGELVIHEKGFYYIYSQTYFRFQEEIKENTKNDKQMVQYIYKYTSYPDPILLMKSARNSCWSKDAEYGLYSIYQGGIFELKENDRIFVSVTNEHLIDMDHEASFFGAFAVSGAAAHITGTRGRSNTLSSPNSKNEKALGRKINSWESSRSGHSFLSNLHLRNGELVIHEKGFYYIYSQTYFRFQEEIKENTKNDKQMVQYIYKYTSYPDPILLMKSARNSCWSKDAEYGLYSIYQGGIFELKENDRIFVSVTNEHLIDMDHEASFFGAFAVS
9 | 4.3 nM | Db-Glyco-scTRAIL3-FAVSGIA (other, glycosylated connecting peptide) LEASDYKDDDDKGAEVQLVESGGGLVQPGGSLRLSCAASGFSLTNYGVHWVRQAPGKGLEWLGVIWSGGNTDYNTPFTSRFTISRDNSKNTLYLQMNSLRAEDTAVYYCARALTYYDYEFAYWGQGTTVTVSSGGGGSDIQLTQSPSFLSASVGDRVTITCRASQSIGTNIHWYQQKPGKAPKLLIKYASESISGVPSRFSGSGSGTEFTLTISSLQPEDFATYYCQQNNNWPTTFGAGTKLEIKRAAAGNGTSNGTSEFGGIAAHITGTRGRSNTLSSPNSKNEKALGRKINSWESSRSGHSFLSNLHLRNGELVIHEKGFYYIYSQTYFRFQEEIKENTKNDKQMVQYIYKYTSYPDPILLMKSARNSCWSKDAEYGLYSIYQGGIFELKENDRIFVSVTNEHLIDMDHEASFFGAFAVSGIAAHITGTRGRSNTLSSPNSKNEKALGRKINSWESSRSGHSFLSNLHLRNGELVIHEKGFYYIYSQTYFRFQEEIKENTKNDKQMVQYIYKYTSYPDPILLMKSARNSCWSKDAEYGLYSIYQGGIFELKENDRIFVSVTNEHLIDMDHEASFFGAFAVSGIAAHITGTRGRSNTLSSPNSKNEKALGRKINSWESSRSGHSFLSNLHLRNGELVIHEKGFYYIYSQTYFRFQEEIKENTKNDKQMVQYIYKYTSYPDPILLMKSARNSCWSKDAEYGLYSIYQGGIFELKENDRIFVSVTNEHLIDMDHEASFFGAFAVS

Source: US20180094059A1 (published 2018)
